# From paper PMC2912373, “Low-Density Lipoprotein Receptor-Related Protein 1 (LRP1) Mediates Neuronal Aβ42 Uptake and Lysosomal Trafficking” (PLoS ONE, 2010)
# “Also recorded” adds a separate entry of the source.
# B1: ^125I-RAP: iodinated RAP protein used at 5 nM for kinetic analysis of endocytosis (protein, UniProt P30533 35-357, looked up)
# Alpha-2-macroglobulin …: YSREKNQPKPSPKRESGEEFRMEKLNQLWEKAQRLHLPPVRLAELHADLKIQERDELAWKKLKLDGLDEDGEKEARLIRNLNVILAKYGLDGKKDARQVTSNSLSGTQEDGLDDPRLEKLWHKAKTSGKFSGEELDKLWREFLHHKEKVHEYNVLLETLSRTEEIHENVISPSDLSDIKGSVLHSRHTELKEKLRSINQGLDRLRRVSHQGYSTEAEFEEPRVIDLWDLAQSANLTDKELEAFREELKHFEAKIEKHNHYQKQLEIAHEKLRHAESVGDGERVSRSREKHALLEGRTKELGYTVKKHLQDLSGRISRARHNEL
# modifications: 125I-labeled
# notes: iodinated RAP protein used at 5 nM for kinetic analysis of endocytosis
# How the values were obtained:
# [1] = test system: N2a-mLRP4 cells; assay: MTS redox cell viability assay in Aβ42 treated cells; format: cell-based, mouse; conditions: 3 µM Aβ42, 72 h; only in mLRP4-expressing cells, not N2a-pcDNA3; p<0.05, n = 3
# Protocol: We hypothesized that Aβ42 treatment might increase cell death in mLRP4-overexpressing N2a cells because we detected increased co-localization of Aβ42 with lysosomes in these cells. We treated N2a-pcDNA3 and N2a-mLRP4 cells with Aβ42 for 24, 48 and 72 h and assessed cell viability by reduction of the MTS redox dye. Aβ42 was prepared identically to the FAM-Aβ42 experiments.
# Figure 5 Increased susceptibility to Aβ42-mediated cell death in LRP1 minireceptor-expressing cells. N2a-pcDNA3 and N2a-mLRP4 cells were incubated with increasing concentrations of Aβ42 for 24, 48 and 72 h and cell viability was assessed by the reduction of the MTS dye.
# N2a-pcDNA3 and N2a-mLRP4 cells were plated at 16,250 cells/cm^2 in 48-well plates and grown overnight. Serial dilutions of freshly prepared synthetic Aβ42 were prepared by diluting the Aβ42 stock with internalization media. Culture media was then replaced with media containing 0, 1 or 3 µM Aβ42 and cells were incubated for an additional 24, 48 or 72 h. Cell viability was measured by using one-solution cell titer kit at each corresponding time point (Promega, Madison, WI). After 4 h labeling, the soluble reduced formazan product was quantified by directly reading the plate in a Bio-Tek plate reader. After background subtraction from media-only containing wells, results were represented as % of the corresponding control and untreated N2a cells.
# [2] = test system: LRP1; conditions: ref [23], [36]; cited from earlier work
# [3] = test system: N2a-mLRP4-Tless cells; assay: Kinetic analysis of 125I-RAP endocytosis; format: cell-based, mouse; conditions: 5 nM 125I-RAP, 4°C 60 min, then 37°C; internalized/total cell-associated ligand; triple determinations
# Protocol: Figure 4 LRP1 endocytosis is required for Aβ42 uptake and accumulation in N2a cells. A, clathrin heavy chain (CHC) knockdown increases cell surface levels of mLRP4. N2a-mLRP4 cells were infected with CHC shRNA lentivirus or pLKO, control lentivirus. The levels of cell surface and total pools of mLRP4 were determined by flow cytometric analyses with anti-HA antibody in non-permeabilized and saponin-treated cells, respectively. The surface-to-total ratio were calculated and plotted as fold-change to control-infected cells. Right panel, decreased CHC levels and normal mLRP4 levels in transduced N2a-mLRP4 cells were verified by Western blot from sister cultures. […] The intracellular level of FAM-Aβ42 was determined by flow cytometric analyses of pronase-treated cells. […] The cell surface and total pools of the LRP1 minireceptor were determined by flow cytometric analyses with anti-HA antibody as in A in N2a-mLRP4 cells and in N2a cells stably transfected with a deletion variant lacking the cytoplasmic tail of mLRP4 (mLRP4-Tless). The surface-to-total ratios were then calculated and plotted as fold-change to N2a-mLRP4 cells. […] At each time point, the amounts of ligand that is either internalized or that remains at the cell surface were determined and the ratios of internalized to total cell-associated ligand were plotted against time. […]
molecule,measurement,setting,value
Aβ42: Unlabeled synthetic Aβ42 obtained from Bachem,cell viability (reduction of MTS dye),[1],slight yet significant decrease; also recorded: Decreased viability
"RAP: LRP1 chaperone of 39-kDa, model extracellular ligand for LRP1; labeled with Alexa-488 for uptake",affinity of RAP binding to LRP1,[2],high affinity
B1,endocytosis rate for 125I-RAP in N2a-mLRP4-Tless vs N2a-mLRP4 cells,[3],decreased
